Test results: patent publication US20250206836A1 (ONA THERAPEUTICS S L, published 2025)
Substitutions are numbered along the chain they refer to. Names and notes keep the numbering of the source.

B1: 19G04 (antibody, human IgG1, V domains shown)
VH: EVQLQQSGPELVKPGASVKISCETSGHTFTEYTMHWVKQSHGKSLEWIGGIYPNNGATKYNQKFKGKATLTVDKSSSTAYMELRSLTSEDSAVYYCARDRYDVWFAYWGQGTLVTVSA
VL: ETTVTQSPASLSMAIGEKVTIRCITSTDIDDDMNWYQQKPGEPPKLLISEGNTLRPGVPSRFSSSGYGTDFIFTIENMLSEDVADYYCLQSDNLPLTFGAGTKLELK
notes: Chimeric: mouse variable regions on human IgG1 LALA (L234A/L235A); also called 019G04
B2: 11G04 (antibody, human IgG1, V domains shown)
VH: EVQLQQSGAELVRPGASVTLSCKASGYRFSDYEMQWVKQTPVHGLEWIGGIDPETGGIAYNQKFKVKATLTADKSSSTAFMELRSLTSEDSAVYYCTRKLDFDYWGQGTTLTVSS
VL: B1 VL with M13V, I15T, I72V
notes: Chimeric: mouse variable regions on human IgG1 LALA (L234A/L235A); also called 011G04
B3: 30G04 (antibody, human IgG1, V domains shown)
VH: EVQLVESGGGVVQPGESLKLSCESNEYEFPSHDMSWVRKTPERRLELVAAINSDGAITYYPDTMERRFIISRDNTKKTLYLQMSSLKSEDTAMYYCARHGQTGTWFAYWGQGTLVTVSA
VL: B1 VL with I72V
notes: Chimeric: mouse variable regions on human IgG1 LALA (L234A/L235A); also called 030G04
B4: 33G04 (antibody, human IgG1, V domains shown)
VH: AVTLDESGGGLQTPGGALSLVCKASGFDFSSYAMGWVRQAPGKGLEWVAGKAKDGGGTAYGSAVKGRATISRDNGQSTVRLQLSNLRAEDTGVYYCAKSAYGDWFYGSSGPYADSIDAWGHGTEVIVSS
VL: ALTQPSSVSASPGETVKITCSGSSDSWYGWYQQKSPGSALVTVIYDSTNRPSSIPSRFSGSTSGSTGTLTITGVRADDEAVYFCGSFDSSTDSTAFGAGTTLTVL
notes: Chimeric: chicken variable regions on human IgG1 LALA (L234A/L235A); also called 033G04
B5: 34G04 (antibody, human IgG1, V domains shown)
VH: B4 VH
VL: ALTQPSSVSANPGETVKITCSGGDNYAGSYYYGWYQQKSPGSAPVTVIYDDTNRPADIPSRFSGSTSGSTNTLTITGVRAEDEAVYFCGGWDSINDRNIFGAGTTLTVL
notes: Chimeric: chicken variable regions on human IgG1 LALA (L234A/L235A); also called 034G04
B6: 35G04 (antibody, human IgG1, V domains shown)
VH: AVTLDESGGGLQTPGGALSLVCKASGFTFSNYGMGWMRQAPGKGLEFVAKIYKDGGYTGYGAAVDGRATISRDDGQSTVRLQLNDLRAEDTATYFCAKAADSGYLYITDSIDAWGHGTEVIVSS
VL: ALTQPSSVSANPGETVKITCSGGSGSYGWFQQKSPGNAPVTVIYHNDQRPSDIPSRFSGSKSGSTATLTITEVQADDEAVYVCGGYDNDNDAGIFGAGTTLTVL
notes: Chimeric: chicken variable regions on human IgG1 LALA (L234A/L235A); also called 035G04
B7: 36G04 (antibody, human IgG1, V domains shown)
VH: AVTLDESGGGLQTPGGALSLVCKASGFIFSSYGMGWVRQAPGKGLEYIAAISNDGSKADYGAAVKGRATISRDNGQSTVRLQLNNLRAEDTATYYCAKSADTGYCSWSACIADSIDAWGHGTEVIVSS
VL: ALTQPSSVSAIPGETVKITCSGGGSDYGWYQQKSPGSAPVTVIYWSDNRPSNIPSRFSGSESGSTATLTITGVRAEDEAVYFCGGYDSSGSGMFGAGTTLTVL
notes: Chimeric: chicken variable regions on human IgG1 LALA (L234A/L235A); also called 036G04
B8: 37G04 (antibody, human IgG1, V domains shown)
VH: AVTLDESGGGLQTPGGALSLVCKASGFTFSDYDMLWVRQAPGKGLEFVAGINAASTYTDYGAAVKGRATISRDNGQSTVRLQVNNLRAEDTGTYYCAKSSYGGGWSDVGSIDAWGHGTEVIVSS
VL: ALTQPSSVSANPGETVKITCSGDRSYYGYGWYQQKAPGSAPVTVIYWDDKRPSDIPSRFSGSTSGSTATLTITGVQAEDEAVYFCGNMDSSYVGMFGAGTTLTVL
notes: Chimeric: chicken variable regions on human IgG1 LALA (L234A/L235A); also called 037G04
B9: 38G04 (antibody, human IgG1, V domains shown)
VH: AVTLDESGGGLQTPGRALSLVCKASGFTFSSYNMFWVRQAPGKGLEWVAGIDDDGSFTLYGAAVKGRATISRDNGQSTVRLQLNNLRAEDTGTYYCARDSGAVSIDAWGHGTEVIVSS
VL: ALTQPSSVSANPGETVKITCSGGDSDYGWYQQKSPGSAPVTVIYQNDKRPSDIPSRFSGSASGSTATFTITGVQAEDEAVYYCGGWDGSYDGAVFGAGTTLTVL
notes: Chimeric: chicken variable regions on human IgG1 LALA (L234A/L235A); also called 038G04
B10: 73G06 (antibody, human IgG1, kappa)
heavy: EVQLVQSGAEVKKPGSSVKVSCKASGYRFSDYEMQWVRQAPGQGLEWMGGIDPETGGIAYAQKFQGRVTLTADKSTSTAYMELSSLRSEDTAVYYCTRKLDFDYWGQGTLVTVSSASTKGPSVFPLAPSSKSTSGGTAALGCLVKDYFPEPVTVSWNSGALTSGVHTFPAVLQSSGLYSLSSVVTVPSSSLGTQTYICNVNHKPSNTKVDKKVEPKSCDKTHTCPPCPAPESTRGPSVFLFPPKPKDTLYITREPEVTCVVVDVSHEDPEVKFNWYVDGVEVHNAKTKPREEQYNSTYRVVSVLTVLHQDWLNGKEYKCKVSNKALPAPIEKTISKAKGQPREPQVYTLPPSRDELTKNQVSLTCLVKGFYPSDIAVEWESNGQPENNYKTTPPVLDSDGSFFLYSKLTVDKSRWQQGNVFSCSVMHEALHNHYTQKSLSLSPGK
light: ETTVTQSPAFMSATTGDKVTISCITSTDIDDDMNWYQQKPGEPPKLLISEGNTLRPGVPSRFSSSGYGTDFTFTINNIESEDAAYYYCLQSDNLPLTFGQGTKLEIKRTVAAPSVFIFPPSDEQLKSGTASVVCLLNNFYPREAKVQWKVDNALQSGNSQESVTEQDSKDSTYSLSSTLTLSKADYEKHKVYACEVTHQGLSSPVTKSFNRGEC
notes: Humanized 11G04, human IgG1 STR
B11: 74G06 (antibody, human IgG1, kappa)
heavy: B10 heavy with E1Q
light: B10 light
notes: as for B10
B12: 75G06 (antibody, human IgG1, kappa)
heavy: B10 heavy
light: B10 light with T15P
notes: as for B10
B13: 76G06 (antibody, human IgG1, kappa)
heavy: B10 heavy with E1Q
light: B10 light with T15P
notes: as for B10
B14: 77G06 (antibody, human IgG1, kappa)
heavy: B10 heavy
light: B10 light with N52S
notes: as for B10
B15: 78G06 (antibody, human IgG1, kappa)
heavy: B10 heavy with E1Q
light: B10 light with N52S
notes: as for B10
B16: 79G06 (antibody, human IgG1, kappa)
heavy: B10 heavy
light: B10 light with T15P, N52S
notes: as for B10
B17: 80G06 (antibody, human IgG1, kappa)
heavy: B10 heavy with E1Q
light: B10 light with T15P, N52S
notes: as for B10

What was measured:
[1] = target: T1, human CD36 (on HEK 293 or SCC25 cells) (human, UniProt P16671 2-472); test: cell-based or functional assay
T1 sequence (P16671 2-472 limits assumed): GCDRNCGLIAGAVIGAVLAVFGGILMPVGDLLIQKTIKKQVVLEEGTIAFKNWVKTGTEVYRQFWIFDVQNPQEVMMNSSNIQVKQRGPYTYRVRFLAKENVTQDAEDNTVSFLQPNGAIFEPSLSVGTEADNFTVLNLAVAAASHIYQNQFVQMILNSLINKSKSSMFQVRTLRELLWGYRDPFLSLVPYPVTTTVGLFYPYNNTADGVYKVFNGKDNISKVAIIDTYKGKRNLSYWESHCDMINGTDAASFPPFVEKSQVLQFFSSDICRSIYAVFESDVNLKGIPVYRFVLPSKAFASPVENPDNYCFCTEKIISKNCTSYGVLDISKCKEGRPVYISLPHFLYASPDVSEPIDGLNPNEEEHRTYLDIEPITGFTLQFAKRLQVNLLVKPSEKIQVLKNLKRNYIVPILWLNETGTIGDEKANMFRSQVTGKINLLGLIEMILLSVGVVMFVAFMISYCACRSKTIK

[2] = target: T1, human CD36 (on HEK 293 or SCC25 cells); test: cell-based or functional assay; remark: listed apart in the source
[3] = target: T2, purified biotin-tagged human CD36 (human, UniProt P16671 30-439, limits assumed, biotin tag, site not stated); test: AlphaScreen competition; competitor 11G04 on acceptor beads
T2 sequence (P16671 30-439 limits assumed): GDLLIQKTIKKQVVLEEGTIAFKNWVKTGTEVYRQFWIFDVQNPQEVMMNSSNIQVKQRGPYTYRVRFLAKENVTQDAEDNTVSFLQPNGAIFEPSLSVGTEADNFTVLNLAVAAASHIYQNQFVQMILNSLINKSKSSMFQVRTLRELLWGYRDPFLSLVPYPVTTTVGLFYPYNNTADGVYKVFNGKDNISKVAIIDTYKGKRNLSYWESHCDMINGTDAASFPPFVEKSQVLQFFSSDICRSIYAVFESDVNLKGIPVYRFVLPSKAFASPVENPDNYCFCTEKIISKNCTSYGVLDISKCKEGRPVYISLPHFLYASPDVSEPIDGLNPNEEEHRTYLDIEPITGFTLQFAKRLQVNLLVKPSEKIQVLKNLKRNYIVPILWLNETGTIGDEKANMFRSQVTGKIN

[4] = target: T3, nonhuman primate CD36 (on HEK 293 cells) (cynomolgus monkey / rhesus macaque, UniProt P16671 2-472 (human entry)); test: FACS, HEK 293 cells transiently overexpressing CD36;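 note: antibody binding to transfected cells detected by flow cytometry with a fluorescent anti-human secondary antibody, EC50 from a four-parameter sigmoidal fit of mean fluorescence intensity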
T3 construct: also called non-human primate CD36 (cynomolgus)
T3 sequence (P16671 other isoform, or with tags, fused parts or gaps limits assumed): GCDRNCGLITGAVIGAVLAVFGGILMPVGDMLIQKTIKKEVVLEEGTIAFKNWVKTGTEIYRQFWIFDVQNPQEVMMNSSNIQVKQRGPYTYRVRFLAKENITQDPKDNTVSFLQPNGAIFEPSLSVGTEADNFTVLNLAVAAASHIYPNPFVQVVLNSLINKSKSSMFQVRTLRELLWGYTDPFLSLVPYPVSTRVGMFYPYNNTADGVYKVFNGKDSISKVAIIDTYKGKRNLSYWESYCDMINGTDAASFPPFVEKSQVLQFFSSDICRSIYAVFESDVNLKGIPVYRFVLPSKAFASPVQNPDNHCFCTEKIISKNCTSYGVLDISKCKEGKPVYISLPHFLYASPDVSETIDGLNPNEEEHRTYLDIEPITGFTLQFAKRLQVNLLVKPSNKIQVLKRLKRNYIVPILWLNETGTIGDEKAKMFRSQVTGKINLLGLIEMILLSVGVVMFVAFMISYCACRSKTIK
Description: (§1) After transiently transfecting the HEK 293 cells with a CD36 expression construct, cells were treated with three-fold serial dilution of each candidate antibody (10 dilutions starting at 500 nM). […] After incubation with the cells, an anti-human fluorescently labelled antibody was added to the cell media, allowed to incubate further, and the unbound antibody was washed off of the cells. Subsequently, the cells were subjected to FACS analysis to determine antibody binding to the cells. The results were fitted to a sigmoidal titration curve. Using a nonlinear regression model, the EC₅₀ values for each antibody were calculated from the GeoMFI and MFI values using the log(agonist) versus response (four parameters) fitting on the data transformed according to X=Log[X] in GraphPad PRISM.

[5] = target: T4, mouse CD36 (on HEK 293 cells) (mouse, UniProt Q08857 1-472); test: as above
T4 construct: also called Murine CD36
T4 sequence (Q08857 whole entry): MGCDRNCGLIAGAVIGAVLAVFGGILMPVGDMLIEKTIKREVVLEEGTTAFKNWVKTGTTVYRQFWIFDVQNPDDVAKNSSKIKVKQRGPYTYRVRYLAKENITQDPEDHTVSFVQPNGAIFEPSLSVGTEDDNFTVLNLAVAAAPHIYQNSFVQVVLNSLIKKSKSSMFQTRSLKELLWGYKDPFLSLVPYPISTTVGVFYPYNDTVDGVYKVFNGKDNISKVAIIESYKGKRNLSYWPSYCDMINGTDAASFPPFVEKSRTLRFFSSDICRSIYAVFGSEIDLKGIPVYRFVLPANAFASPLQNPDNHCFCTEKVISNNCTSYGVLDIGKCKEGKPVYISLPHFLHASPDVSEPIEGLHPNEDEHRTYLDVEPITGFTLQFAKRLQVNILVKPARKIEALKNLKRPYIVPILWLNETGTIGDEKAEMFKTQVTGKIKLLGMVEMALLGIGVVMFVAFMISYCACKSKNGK
Description: as §1

[6] = target: T1, human CD36 (on HEK 293 or SCC25 cells); test: as above
Description: as §1

[7] = target: T1, human CD36 (on HEK 293 or SCC25 cells); test: FACS, SCC25 cells stably overexpressing human CD36
Description: as §1

human CD36 (His-tagged) = target: T5, human CD36 (His-tagged) (human, UniProt P16671 30-439); test: SPR (Biacore T200), His-captured CD36, bivalent analyte model
T5 construct: not shown: His tag
T5 sequence (P16671 30-439 limits assumed): as the sequence (P16671 30-439 limits assumed) above

[8] = target: T1, human CD36 (on HEK 293 or SCC25 cells); test: cell-based or functional assay; remark: listed apart in the source
[9] = target: T1, human CD36 (on HEK 293 or SCC25 cells); test: FACS, HEK 293 cells transiently overexpressing human CD36
Description: After incubation with the cells, an anti-human fluorescently labelled antibody was added to the cell media, allowed to incubate further, and the unbound antibody was washed off of the cells. Subsequently, the cells were subjected to FACS analysis to determine antibody binding to the cells. The results were fitted to a sigmoidal titration curve. Using a nonlinear regression model, the EC₅₀ values for each antibody were calculated from the GeoMFI and MFI values using the log(agonist) versus response (four parameters) fitting on the data transformed according to X=Log[X] in GraphPad PRISM.
After transiently transfecting the HEK 293 cells with a CD36 expression construct, cells were treated with three-fold serial dilution of each candidate antibody (10 dilutions starting at 500 nM). […] Antibody binding to cells was measured by FACS as above.

[10] = target: T2, purified biotin-tagged human CD36; test: AlphaScreen competition; competitor 1G04 on acceptor beads;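 note: streptavidin donor beads excited at 680 nm release singlet oxygen, and the light signal needs a nearby acceptor bead, with 30 min donor-bead incubation at 25 °C in the dark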
Description: This was done using the AlphaScreen® bead-based microplate assay. […] AlphaLISA® Streptavidin Donor Beads were then added and the mix incubated for 30 min at 25° C. in the dark. The donor bead contains a photosensitizer, which upon excitation by light at 680 nm, converts oxygen (O₂) into an excited form, singlet oxygen. Singlet oxygen molecules have a reduced lifetime (4 microseconds half-life) and can diffuse approximately 200 nm in solution before falling back to ground state. In the absence of acceptor beads, the singlet oxygen molecules fall back to ground state without producing any light signal.
Throughout, for Percent Fatty Acid Uptake Inhibition: test concentration or dose not given here.

Binder	IC50 of fatty acid uptake inhibition (BODIPY FL C16, HEK hCD36 cells) [2] [nM]	EC50 [3] [nM]	EC50 [4] [nM]	EC50 [5] [nM]	EC50 [6] [nM]	IC50 of oxLDL uptake inhibition (DiI-oxLDL, SCC25 cells) [8] [nM]	EC50 [9] [nM]	EC50 [10] [nM]	further results
B1	0.05	5.23	5.45	22.5	1.92				Percent Fatty Acid Uptake Inhibition [1]: 53.3%; EC50 [7]: 0.75 nM
B2	0.07		8.93	11.2	0.45	1.17	0.49		Percent Fatty Acid Uptake Inhibition [1]: 41.6%; Kd (human CD36 (His-tagged)): 19 nM; koff (human CD36 (His-tagged)): 0.022 s⁻¹; kon (human CD36 (His-tagged)): 1.2e+06 M⁻¹ s⁻¹; EC50 [7]: 0.46 nM
B3	0.8	0.65	1.63	0.96	0.32				Percent Fatty Acid Uptake Inhibition [1]: 43.5%; EC50 [7]: 0.22 nM
B4	0.1	3.68	0.52	4.33	0.31	0.28		1.58	
B5	0.2	4.82	1.4	6.75	0.56	1.06		2.47	
B6	0.04	1.35	0.59	2.25	0.63	0.11		0.66	
B7	0.81	1.04	0.29	0.66	0.33	0.09		0.57	
B8	0.3	3.3	1.45	2.29	0.62	1.14		9.91	
B9	0.18	1.05	0.33	0.69	0.35	0.35		1.45	
B10							0.87		
B11							1.1		
B12							0.98		
B13							0.88		
B14							0.81		
B15							1.15		
B16							0.65		
B17							0.65		
